Molecular target: T1, PD-L1-Ig-V (UniProt Q9NZQ7 19-134)
T1 construct: domain: Ig-V; also called PD-L1胞外域蛋白; not shown: His-Tag from the pET-28a vector
Assay: non-competitive checkerboard ELISA, mean of 6 K values

T1 sequence (Q9NZQ7 19-134): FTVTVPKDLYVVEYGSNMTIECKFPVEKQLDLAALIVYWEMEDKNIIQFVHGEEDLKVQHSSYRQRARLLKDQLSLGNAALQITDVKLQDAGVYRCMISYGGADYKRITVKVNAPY

B1: PD-L1-Ig-V-VHH 6-21 (VHH)
VHH: DVQLQASGGGLVQAGGSLRLSCAASRMIFSTFSIQDMGWYRQAPGKQRDLVALITSDGSTNYADSVKGRFTISRDNAKSTVYLQMNNLKPEDTAVYYCAATDNVSGGRLLLNIWWMRDMWYNYWGQGTLVTVSS
notes: Nanobody from a synthetic phage display library (pCANTAB5E, M13K07 helper phage); also called 6-21号克隆
  Ka: ~1.93e+08 M⁻¹

From CN113045662A (SEEBIO BIOTECHNOLOGY SHANGHAI CO LTD, dated 2021)
